In publication PMC10763564, “BrainBike peptidomimetic enables efficient transport of proteins across brain endothelium†” (RSC Chemical Biology, 2023):
Starred links: 1 amine or outer side, 2 acyl side, 3 side chain; linkers in the order of their positions; H or OH if unused. Positions of bridges follow the written chain, without caps; N, C: chain ends. No end group written: not given here. TBMB = c1c(C[*:1])cc(C[*:3])cc1C[*:2]

What was measured:
[1] = target: T1, TfR1 fused to a green fluorescent protein, on transfected HeLa cells (TfR1+++) (UniProt P02786 1-760); assay: flow cytometry on cells; sCy5-labelled peptide on HeLa cells transfected with GFP-TfR1 (TfR1+++), cells with higher levels of the receptor analysed; conditions: one partner purified
T1 construct: Transferrin Receptor 1 (TfR1) encoded by a plasmid as a fusion with GFP; The transfected HeLa cells carry the endogenous TfR1 as well; also called GFP-TfR1; source: HeLa, transfected, on cells

[2] = target: T2, Transferrin Receptor 1 on HeLa cells (TfR1+) (human (endogenous in HeLa), UniProt P02786 1-760); assay: flow cytometry on cells; sCy5-labelled peptides on HeLa cells (TfR1+, endogenous receptor); conditions: one partner purified
T2 construct: Transferrin Receptor 1 (TfR1), endogenous on HeLa cells; source: endogenous, on HeLa cells
T2 sequence (P02786 whole entry): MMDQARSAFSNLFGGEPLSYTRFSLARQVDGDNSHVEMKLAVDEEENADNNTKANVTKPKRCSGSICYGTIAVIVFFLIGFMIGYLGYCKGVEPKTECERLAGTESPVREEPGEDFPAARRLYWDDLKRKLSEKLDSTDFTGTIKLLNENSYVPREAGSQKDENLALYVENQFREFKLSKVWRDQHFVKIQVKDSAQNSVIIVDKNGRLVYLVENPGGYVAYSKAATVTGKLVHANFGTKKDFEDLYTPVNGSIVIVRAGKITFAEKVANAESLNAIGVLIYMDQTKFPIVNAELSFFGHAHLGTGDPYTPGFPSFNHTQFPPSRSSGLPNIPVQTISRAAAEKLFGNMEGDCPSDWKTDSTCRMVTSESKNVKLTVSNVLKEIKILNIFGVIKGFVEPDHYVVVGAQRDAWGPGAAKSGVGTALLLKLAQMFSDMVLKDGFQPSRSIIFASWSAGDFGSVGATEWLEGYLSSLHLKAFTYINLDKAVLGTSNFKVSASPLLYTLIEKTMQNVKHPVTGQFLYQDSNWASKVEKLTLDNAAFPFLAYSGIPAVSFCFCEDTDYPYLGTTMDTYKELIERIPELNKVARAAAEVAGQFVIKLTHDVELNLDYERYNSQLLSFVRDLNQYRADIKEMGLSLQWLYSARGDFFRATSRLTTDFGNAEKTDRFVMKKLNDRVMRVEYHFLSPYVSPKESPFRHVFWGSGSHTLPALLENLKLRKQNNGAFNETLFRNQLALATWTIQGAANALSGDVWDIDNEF

T1 sequence (P02786 whole entry, the tested form may be a part): as the sequence (P02786 whole entry) above

fold binding against the same cells without overexpressing the receptor [1]: ~40 fold
Kd [2]: ~40 nM
fold cell association against the parent peptide Y1 [2]: 7 fold
B1: BrainBike-4 labelled with sulfo-Cyanine5 (peptide)
chain: {sulfo‑Cyanine5}-GSGCVHWDCRQWC
modifications: linker 4-9-13 via TBMB
